Results from the supplement of paper PMC9170038.

Experiments:
[1] = tested on: K4 kissing-loop RNA reporter; experiment: apparent KD of K4 kissing-loop reporter; higher = weaker reporter binding; conditions: Eterna round: R107;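 further: bound reporter read as fluorescence of individual clusters on recovered sequencing chips by microscopy, with normalized cluster intensities fitted with a binding model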
Description: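 RNA-MaP round R107: designed RNA switches with theophylline, tryptophan, arginine or FMN aptamers are transcribed on-chip within common flanks. They are titrated with a labelled K4 kissing-loop RNA reporter in RNA-MaP buffer (100 mM Tris pH 7.5, 80 mM KCl, 4 mM MgCl2), without ligand or with the indicated ligand. Median apparent KD per design.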

MS2 coat protein = experiment: apparent KD of MS2 coat protein; designed switch direction (-1 OFF switch, 1 ON switch): -1; higher = weaker reporter binding
Method in brief: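 Designed RNA switches were transcribed on Illumina chips by stalled E. coli RNA polymerase and titrated with SNAP-549-labelled MS2 coat protein from 0.7 or 1.5 nM, doubling to 3 µM. Step length ran from 0.8–1.5 h at the lowest concentration to 10–20 min at the highest. The apparent KD is the median over clusters for each design, from curve-fitted normalised cluster fluorescence.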

[2] = input ligand: microRNA oligo, concentration not stated
[3] = Eterna round: R95, input ligand: microRNA oligo, concentration not stated
[4] = Eterna round: R95, input ligand: FMN 200 uM
[5] = Eterna round: R95, input ligand: none

| Sequence | apparent KD of MS2 coat protein (MS2 coat protein; input ligand: FMN 200 uM) [nM] | apparent KD of MS2 coat protein (MS2 coat protein; input ligand: none) [nM] | apparent KD of MS2 coat protein (MS2 coat protein; [3]) [nM] | apparent KD of MS2 coat protein (MS2 coat protein; [4]) [nM] | apparent KD of MS2 coat protein (MS2 coat protein; [5]) [nM] | other results |
| --- | --- | --- | --- | --- | --- | --- |
| CAUACGCAUGGAGGAUAUGAGAUUUCUCAUGUCAUUUAAUAUUCUCAGUGAUGUUGAGAUUUUGGCUCAGAAGGCCAUGUGUAUG [Ex FMN B 19] |  |  |  |  |  | apparent KD of K4 kissing-loop reporter ([1]; input ligand: FMN 200 uM): 176 nM; apparent KD of K4 kissing-loop reporter ([1]; input ligand: arginine 13.2 mM): 249 nM; apparent KD of K4 kissing-loop reporter ([1]; input ligand: none): 281 nM; apparent KD of K4 kissing-loop reporter ([1]; input ligand: theophylline 20 uM): 297 nM; apparent KD of K4 kissing-loop reporter ([1]; input ligand: tryptophan 2.4 mM): 273 nM |
| GGUCGUCAAGUCAGGAUAUCGUAUAGUCGAUGUAACGAGAAGGGACAUGAGGAUCACCCAUGUCGUCUCAUCAG [Ex4 #25] (Eterna round: R97, puzzle: Brourd's mod of Exclusion 4) | 18.2 | 17.7 |  |  |  |  |
| AAAUAAACAAGCAACUCGAACAUGAGGAUCACCCAUGUAAAGGGUGAAUCGUCCACCCAAAAAAAAAAUAAAAAAAA [Mat - Sensor v2 - Eli mod - 132] (Eterna round: R96, puzzle: Sensor v2, turn-off variant) | 57.7 | 55.9 |  |  |  | apparent KD of MS2 coat protein (MS2 coat protein; [2]): 116 nM |
| GUUAACGAUGAGGAUAUAUGAUAUCAAAGCAUCAUAGAAGGCAUCACAUGAGGAUCACCCAUGUGAUCUUCUUG [Mat - Exclusion 6 - JL Mod - D27] (Eterna round: R97, puzzle: Exclusion 6) | 120 | 29.4 |  |  |  |  |
| GGCCUGGAAGGAUAUACAUGAGGAUCACCCAUGUGAAGCCGGUGCAAAUUGACACGAUGUAGAAGGUCCAGCCG [Eternabot (L1) Solution 92] (Eterna round: R97, puzzle: Exclusion 3) | 467 | 172 |  |  |  |  |
| CGUGCGUAUGUGAGGAUAUGCUGGUCCUUGGAUCAGCAGAAGGCACAUGAGGAUCACCCAUGUGGUGUCGUACC [salish99_Bmod_Ex4_001] (puzzle: Brourd's mod of Exclusion 4) |  |  | 170 |  |  |  |
| UUUUAACAUGAGGAUCACCCAUGUGAGGAUAUCGUUUUUUUUUUUUUUUUUUUUUUUUCGAGAAGGCACAUUUU [My solution] (puzzle: Exclusion 1) |  |  | 84 | 127 | 14 |  |
| AAGUACCGUCACGAAAGUGAUGGUACAGCAAGUAAAUGUACAUGAGGAUCACCCAUGUCCUCAAUUGCUCGUCUUAU [Sensor 3 - 59] (puzzle: Sensor v3, turn-off variant 2) |  |  | 173 | 185 | 212 |  |
| UGGUAACAUGAGGAUCACCCAUGUCAGGAUAUCAGGAAGAAGAGAGGAGAGUAGAAGAUGAGAAGGGACUAUAU [Excluse me! 10 - Jieux - Exclusion 1] (puzzle: Exclusion 1) |  |  | 24.5 | 20.2 | 27.5 |  |
| GAAAAGGUAGGAUAUACGAAAAAAUAGGGUAGAAAAAAAACACAUGAGGAUCACCCAUGUAGAAGGACCAAAAG [salish99_ex2_r3_081] (puzzle: Exclusion 2) |  |  | 33.7 | 47.6 | 27.5 |  |
| UUGGAACAUGAGGAUCACCCAUGUCAGGAUAUUCCAAAAUCGUCGAAAGACGAUAACAGAAGAAGGGACAUUAG [Fiskxlusion 9 - Jieux - Exclusion 1] (Eterna round: R97, puzzle: Exclusion 1) | 124 | 80.2 |  |  |  |  |
| UCAAGCUUUAAGCGCGUGAACAUGAGGAUCACCCAUGUAUUUCGGGUUUUGGUUUUUUGUAUGGGUUCUUGUCUUAU [JR_SWV3TOV1_Sub096] (puzzle: Sensor v3, turn-off variant 1) |  |  | 19.2 | 39.2 | 41.8 |  |
| UAUAUGUUAGGAUAUUAGUAGUAAAUAAAUAAAAUUAUUACUGAGAAGGGACAUGAGGAUCACCCAUGUACCUC [Salish 062 v33] (Eterna round: R97, puzzle: Exclusion 4) | 21.9 | 12.7 |  |  |  |  |
| CCAGAGUGAGGAUAUGCAUAAAGGUGCUGUCCCGUGGCUUGACAUGAGGAUCACCCAUGUAGAAGGUGCGUUGU [Raonra] (Eterna round: R96, puzzle: Exclusion 2) | 51.6 | 54.4 |  |  |  | apparent KD of MS2 coat protein (MS2 coat protein; [2]): 35.6 nM |
| AGUAGUUCAGGAUAUGAUGAAGAGAACAUGAGGAUCACCCAUGUUGCAUCGUUUUUAUCAUCAGAAGGGAAUAACU [JR_Ex5_Sub085] (Eterna round: R97, puzzle: Exclusion 5) | 12.7 | 13.1 |  |  |  |  |
| UUUUAACAUGAGGAUCACCCAUGUGAGGAUAUCGAAAUUUAUAUUAAUAUUAAUAAUACGAGAAGGCACAUUUU [JMF 22] (puzzle: Exclusion 1) |  |  | 71 |  |  |  |

| Sequence | apparent KD of MS2 coat protein (MS2 coat protein; input ligand: FMN 200 uM) [nM] | apparent KD of MS2 coat protein (MS2 coat protein; input ligand: none) [nM] | apparent KD of MS2 coat protein (MS2 coat protein; [3]) [nM] | apparent KD of MS2 coat protein (MS2 coat protein; [4]) [nM] | apparent KD of MS2 coat protein (MS2 coat protein; [5]) [nM] | other results |
| --- | --- | --- | --- | --- | --- | --- |
| AGCCAGCUAGGAUAUUGCAGUUGUAACAUGAGGAUCACCCAUGUGAUAGGUGUUUAGCUCCAAGAAGGAGCGCGGC [Eronsoti] (puzzle: Exclusion 5) |  |  | 27.1 | 88.7 | 28 |  |
| CUAGAUCUUCGGAUCUAGGACAUGAGGAUCACCCAUGUCACGAGCAGAUCUUCAUGCAAGCUUUUUGCUCGUCUUAU [Sensor v3 - Turn-off variant 1 - 37] (puzzle: Sensor v3, turn-off variant 1) |  |  | 409 | 27.3 | 33.4 |  |
| AGGUCAGAAGGAUAUACAUGAGGAUCACCCAUGUGGGAUACAACGAGCCGUUGUUCAGGUAGAAGGUCUAAAAU [Eternabot (Original) Solution 33] (Eterna round: R97, puzzle: Exclusion 3) | 86 | 77.3 |  |  |  |  |
| GAAAAGGUAGGAUAUACGAAAAAAAAGGGUAGAAAAAAAACACAUGAGGAUCACCCAUGUAGAAGGACCAAAAG [salish99_ex2_r3_015] (puzzle: Exclusion 2) |  |  | 28.7 | 57.8 | 27.2 |  |
| AAAAAACAAGGAUAUACGAAGGAGGAUUAUCUUAAUUUUUGACAUGAGGAUCACCCAUGUAGAAGGUGUUAAAA [JR_Exclusion2_Sub009] (puzzle: Exclusion 2) |  |  | 38.2 | 83.5 | 48.4 |  |
| UCAUGGUAGCAGGAUAUGCUUGUAAUUUUUUUUGCAGAAGGGCUUACAUGAGGAUCACCCAUGUGUUAGGUCUA [JR_E6_Sub068] (puzzle: Exclusion 6) |  |  | 30.7 |  |  |  |
| UCUCGAAGGCAAGGAUAUCCUACAUUGUUCUGGCCCGGGCAUGCUACAUGAGGAUCACCCAUGUGGGAGAAGGUGCGCCACUGC [Design 28] (Eterna round: R96, puzzle: Exclusion NG 2) | 69.6 | 72 |  |  |  | apparent KD of MS2 coat protein (MS2 coat protein; [2]): 47.1 nM |
| AGUAGGUCUACCUUGGUGGAUCUGCAUAAAGCAAGUGAUACAUGAGGAUCACCCAUGUCCUCAUUUGCUCGUCUUAU [JL turnoff v2 99.21] (puzzle: Sensor v3, turn-off variant 2) |  |  | 216 | 14 | 14.1 |  |
| AAUAACAGAGGAUAUACUGUUUUAUGUAUUUAUUAUUUUAAACAUGAGGAUCACCCAUGUAGAAGGCUGAUUGA [JMF 71] (puzzle: Exclusion 2) |  |  | 26.8 |  |  |  |
| UGUUGUUCAGGAUAUGGUGUGUUUUACAUGAGGAUCACCCAUGUGGGUCCUGGUUUGGCGUCAGAAGGGAAUGUUG [salish99_ex5_r4_117] (Eterna round: R97, puzzle: Exclusion 5) | 788 | 1040 |  |  |  |  |
| CUGAGGUAGCGGUCCUAUGACAUGAGGAUCACCCAUGUACCUUGCUUUGAGCUUUUAGCUCGUCUUAUGAUUCUCGG [Mat - Sensor v3 - turn-off var 1 - JL Mod - D43] (puzzle: Sensor v3, turn-off variant 1) |  |  | 235 | 271 | 446 |  |
| UCAAACAUCGUUAGGAUAUGCUGGACUAAAUAGUGGCAGAAGGAACAUGAGGAUCACCCAUGUGCCUCGAUUGC [Eternabot (L2) Solution 26] (Eterna round: R97, puzzle: Brourd's mod of Exclusion 4) | 17.4 | 13.4 |  |  |  |  |
| UAAUACAAGCAAAGAUCUUACAUGAGGAUCACCCAUGUGCUCGUCUUAUAAAGUACUAUCACGAAAGUGAUAGUACU [Mat - Sensor v3 - turn-off var 1 - Eli Mod - D94] (puzzle: Sensor v3, turn-off variant 1) |  |  | 202 | 29.3 | 34.6 |  |
| AGAAAGCAAGGAUAUACGAGGAGAAGGUGGAGAGUUAAAGGACAUGAGGAUCACCCAUGUAGAAGGUGCGAGAA [JR_Exclu2_Sub044] (puzzle: Exclusion 2) |  |  | 67.1 | 122 | 72 |  |
| AACCUGAGGCUUUGCUUUAGGUUUACAUGAGGAUCACCCAUGUAGGAUAUGGUAGGCUUUGCUUACCAGAAGGACAUGAUAAUU [Mat - Exclusion NG 3 - Mod of JL - D27] (Eterna round: R96, puzzle: Exclusion NG 3) | 215 | 43.8 |  |  |  | apparent KD of MS2 coat protein (MS2 coat protein; [2]): 33 nM |
| ACAUGAGGAUCACCCAUGUGAACAUGAUGGCUGAUGUAGAGCUAGGAUAUGAGUGAAUAUCUAUCUCAGAAGGAGCUUGACUGG [Deportation 47 - Jieux - Exclusion NG 3] (Eterna round: R96, puzzle: Exclusion NG 3) | 34.1 | 23.2 |  |  |  | apparent KD of MS2 coat protein (MS2 coat protein; [2]): 14.1 nM |
